These results are taken from patent publication US11788108B2, “CMP-dependent sialidase activity” (Roche Diagnostics Operations, Inc., priority 2014, dated 2023).

Data set [1] deals with T1, α-2,6-sialyltransferase from rat liver (Rattus norvegicus, UniProt P13721).
T1 construct: host or cells: rat liver
T1 sequence (P13721 1-403): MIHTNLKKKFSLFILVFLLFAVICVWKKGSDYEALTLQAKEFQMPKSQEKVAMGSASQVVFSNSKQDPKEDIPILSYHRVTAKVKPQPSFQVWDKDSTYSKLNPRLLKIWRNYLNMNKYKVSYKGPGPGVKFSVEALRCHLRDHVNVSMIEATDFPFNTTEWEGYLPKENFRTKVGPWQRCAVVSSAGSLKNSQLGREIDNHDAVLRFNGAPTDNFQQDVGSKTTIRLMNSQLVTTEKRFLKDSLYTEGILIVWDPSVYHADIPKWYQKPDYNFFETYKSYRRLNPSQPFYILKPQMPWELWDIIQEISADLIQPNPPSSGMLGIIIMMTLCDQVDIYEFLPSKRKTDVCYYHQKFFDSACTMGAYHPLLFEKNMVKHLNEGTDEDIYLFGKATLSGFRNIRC
The following applies: each inhibitor at 0.25 mM; cited from earlier work.

Data set [2] has as its target T2, Δ89 hST6Gal-I (Homo sapiens, UniProt P15907).
T2 construct: Erythropoietin signal peptide (Epo) (N, cleaved yes); AP spacer (N, cleaved yes); made in house; host or cells: HEK 293 cells (transient expression, secreted)
T2 sequence (P15907 90-406): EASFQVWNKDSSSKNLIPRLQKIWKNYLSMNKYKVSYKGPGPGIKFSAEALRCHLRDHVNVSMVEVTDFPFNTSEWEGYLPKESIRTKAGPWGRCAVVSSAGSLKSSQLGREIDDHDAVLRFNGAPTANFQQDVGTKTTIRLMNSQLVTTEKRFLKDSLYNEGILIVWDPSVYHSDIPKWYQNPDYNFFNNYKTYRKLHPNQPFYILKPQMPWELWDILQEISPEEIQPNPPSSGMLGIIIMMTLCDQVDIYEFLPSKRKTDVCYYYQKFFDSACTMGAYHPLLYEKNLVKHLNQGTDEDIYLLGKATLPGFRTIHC
The data set can be described thus: Inhibition of sialidase activity of Δ89 hST6Gal-I by CTP. The class given is biochemical. As for the experimental part:
The compound cytidine-5′-triphosphate (CTP) is a known potent inhibitor of sialyltransferases (Scudder P R & Chantler E N BBA 660 (1981) 136-141). […] In the first phase of the experiment the sialylation of IgG4 MAB by Δ89 hST6Gal-I was performed to achieve a high content of G2+2SA (see Example 10). After 7 h of incubation the G2+2SA content was 94%. Subsequently, CTP was added to inhibit the sialidase activity of Δ89 hST6Gal-I (final concentration of CTP: 0.67 mM). At different times samples were taken and the content of G2+0SA, G2+1SA and G2+2SA was determined by mass spectrometry. […] After 72 h of incubation 73% of G2+2SA were still present.

The subject of data set [3] is IgG1 MAB G2+2SA. The data set can be described thus: Sialidase activity on IgG1 MAB G2+2SA in the presence and absence of CMP. The class given is biochemical. The following applies: for sialidase activity in the presence of CMP: CMP 10-fold molar excess, 37° C., pH 6.5, 125 μg enzyme/1,250 μg IgG1 MAB. As for the experimental part:
Cytidine monophosphate (5′-CMP, =CMP) is a product of the reaction catalyzed by sialyltransferase enzymes, generated in the course of the glycosyltransferase reaction from the co-substrate CMP-NANA. With incubation time of a sialylation reaction CMP accumulates in the reaction mixture.
To an amount of 1,250 μg (in 194 μL) highly sialylated IgG1 MAB according to Example 12 with an incubation period for sialylation of 8 h, 125 μg sialyltransferase variant (30 μg/300 μg IgG1 MAB) was added.
Different N-terminally truncated hST6Gal-I enzyme variants were tested for CMP-dependent sialidase activity: • Δ89 hST6Gal-I (Example 9) • Δ108 hST6Gal-I (Example 9) • Δ57 hST3Gal-I (obtained from R&D Systems)
Four different experiments were made using Δ89 hST6Gal-I (16.8 μL with 125 μg), Δ108 hST6Gal-I (17.3 μL with 125 μg), Δ57 hST3Gal-I (20.1 μL with 125 μg) and a negative control (no enzyme, 20.1 μL ultrapure water). The enzymes were tested for sialidase activity in the absence and presence of CMP (10-fold excess based on molarity). The concentrations were as shown as follows:
The samples were incubated at 37° C. in 20 mM sodium citrate, 35 mM Tris pH 6.5. Aliquots were taken as samples after different incubation times, and were analyzed.
To analyze the degree of sialylation of IgG1 MAB in the samples, 124 μL denaturing buffer (6 M Guanidinium chloride in water) and 30 μL TCEP (=tris(2-carboxyethyl)phosphine; 0.1 mM, diluted in denaturing buffer) were added to 76 μL (corresponding to 250 μg IgG1 MAB) and the sample was incubated at 37° C. for 1 h. After that the sample was buffered in electrospray medium (20% ACN (=acetonitrile), 1% FA (=formamide)) using pre-equilibrated ILLUSTRA™ NAP™5-Columns (GE-Healthcare). Subsequently the sample was analyzed by electrospray ionization mass spectrometry and the content of G2+0SA, G2+1SA and G2+2SA N-glycans was determined. A Synapt G2 HDMS device (Waters UK) was used, the software used was MassLynx V 4.1.

Data set [4] deals with IgG4 MAB. The data set can be described thus: Sialylation of humanized monoclonal antibody IgG4 MAB using Δ89 hST6Gal-I, mass spectrometry. The class given is biochemical. As for the experimental part: A highly galactosylated humanized monoclonal antibody IgG4 MAB was used in sialylation experiments. The reaction mixture contained IgG4 MAB (300 μg in 55 μL 35 mM sodium actetate/Tris buffer pH 7.0), the donor substrate CMP-NANA (150 μg in 50 μL water) and sialyltransferase (30 μg Δ89 hST6Gal-I in 20 mM potassium phosphate, 0.1 M NaCl, pH 6.5). The samples were incubated at 37° C. for a defined time. To stop the reaction the samples were frozen at −20° C. For mass analysis 100 μL denaturing buffer (6 M guanidinium chloride) and 30 μL TCEP (=tris(2-carboxyethyl)phosphine; 0.1 mM, diluted in denaturing buffer) were added to the samples and the samples were incubated at 37° C. for 1 h. The samples were buffered in electrospray medium [20% ACN (=acetonitrile), 1% FA (=formamide)] using pre-equilibrated Illustra™ Nap5-Columns (GE-Healthcare). Samples were analyzed by electrospray ionization mass spectrometry and the content of G2+0SA, G2+1SA and G2+2SA N-glycans was determined. A Micromass Q-Tof Ultima and a Synapt G2 HDMS device (Waters UK) were used, the software used was MassLynx V 4.1. To determine the kinetics of the sialylation the reaction was incubated up to 72 h.

In data set [5] the test system is asialofetuin. Briefly: Test for sialyltransferase enzymatic activity (transfer of sialic acid from CMP-9-fluoro-NANA to asialofetuin). The class given is biochemical. The conditions noted are these: recombinant enzyme purified from HEK cells. As for the experimental part: Asialofetuin (desialylated fetuin, Roche Applied Science) was used as acceptor and CMP-9-fluoro-NANA (CMP-9-fluoresceinyl-NeuAc) was used as donor substrate (Brossmer, R. & Gross H. J. (1994) Meth. Enzymol. 247, 177-193). Enzymatic activity of a sialyltransferase was determined by measuring the transfer of sialic acid from the donor compound to asialofetuin. The reaction mix (35 mM MES, pH 6.0, 0.035% TRITON™ X-100 (C16H26O2), 0.07% BSA) contained 2.5 μg of enzyme sample, 5 μL asialofetuin (20 mg/mL) and 2 μL CMP-9-fluoro-NANA (1.0 mg/mL) in a total volume of 51 μL. The reaction mix was incubated at 37° C. for 30 min. The reaction was stopped by the addition of 10 μL of the inhibitor CTP (10 mM). The reaction mix was loaded onto a PD10 desalting column equilibrated with 0.1 M Tris/HCl, pH 8.5. Fetuin was eluted from the column using the equilibration buffer. The fractions size was 1 mL. The concentration of formed fetuin was determined using a fluorescence spectrophotometer. Excitation wave length was 490 nm, emission was measured at 520 nm. Enzymatic activity was expressed as RFU (relative fluorescence unit). 10,000 RFU/μg is equivalent to a specific activity of 0.0839 nmol/μg×min.

Data set [6] addresses T3, CMP-dependent sialidase activity of Δ89 hST6Gal-I (Homo sapiens, UniProt P15907).
T3 construct: Erythropoietin signal peptide (Epo) (N, cleaved yes); AP spacer (N, cleaved yes); made in house; host or cells: HEK 293 cells (transient expression, secreted)
T3 sequence (P15907 90-406): T2 sequence (P15907 90-406)
The data set can be described thus: Sialylation of IgG4 MAB using Δ89 hST6Gal-I in the presence of phosphatase enzymatic activity. Format: biochemical. The conditions noted are these: CMP degraded by dephosphorylating enzymes. From the text: Suppression of CMP-dependent sialidase activity of Δ89 hST6Gal-I was studied by continuous removal of CMP formed during the reaction.
In the experiments the enzymes (i) 5′-nucleotidase (EC 3.1.3.5) having a wide specificity for 5′-nucleotides, and (ii) alkaline phosphatase (EC 3.1.3.1) (both provided by commercial suppliers) were used. The particular 5′-nucleotidase used here is also known as ecto-5′-nucleotidase or CD73 (Cluster of Differentiation 73), in humans encoded by the NT5E gene. Both enzymes dephosphorylate CMP, i.e. catalyze hydrolysis of the phosphoester bond in CMP. In the experiments of this Example the enzymes were used to degrade CMP generated by the sialyltransferase reaction from the co-substrate CMP-NANA.
To 1,000 μg IgG4 MAB (182 μL) 500 μg CMP-NANA (3 mg/mL, 166.7 μL), 100 μg Δ89 hST6Gal-I (13.4 μL, 30 μg/300 μg IgG4 MAB) and different amounts of nucleotidase (Nu) and alkaline phosphatase (AP) were added. As Zn^2+ ions are essential for the activity of AP, these were added to a final concentration of 0.1 mM). The buffer used was 20 mM sodium acetate/Tris, pH 6.5. […]
After addition of the respective amounts of enzymes the samples were incubated at 37° C. […] Then the sample was analyzed by electrospray ionization mass spectrometry, and the content of G2+0SA, G2+1SA and G2+2SA N-glycans was determined. […]

As to `Nc1ccn([C@@H]2O[C@H](CO)[C@@H](O)[C@H]2OP(=O)(O)O)c(=O)n1` [2′-CMP], the “inhibition of α-2,6-sialyltransferase” value in data set [1] is 40%.
Turning to `Nc1ccn([C@@H]2O[C@H](COP(=O)(O)OP(=O)(O)OP(=O)(O)O)[C@@H](O)[C@H]2O)c(=O)n1` [CTP, cytidine-5′-triphosphate], in data set [2] (CTP 0.67 mM, compared to inhibitor-free conditions), the “degradation of G2+2SA caused by the sialidase activity” value is “significantly reduced”. The “G2+2SA still present” value in data set [2] (after 72 h of incubation, CTP final concentration 0.67 mM added after 7 h) is reported as 73%.
Turning to `Nc1ccn([C@@H]2O[C@H](CO)[C@@H](OP(=O)(O)O)[C@H]2O)c(=O)n1` [3′-CMP], the “inhibition of α-2,6-sialyltransferase” value in data set [1] was 39%.

B1: Δ89 hST6Gal-I: human β-galactoside-α-2,6-sialyltransferase I variant with truncation deletion of the first 89 N-terminal amino acids (protein)
chain: T2 sequence (P15907 90-406)
modifications: delta89 truncation variant of hST6Gal-I
notes: human β-galactoside-α-2,6-sialyltransferase I variant with truncation deletion of the first 89 N-terminal amino acids
As to B1, in data set [3], the “sialidase activity in the presence of CMP” value was “showed a CMP-dependent sialidase activity”. The “degradation of G2+2SA without CMP” value in data set [3] (reaction mixture without CMP, incubation for 46 h) is on record as “no degradation”. The “content of the bi-sialylated form G2+2SA” value in data set [4] (after 2 h of incubation, 37° C., 30 μg enzyme/300 μg IgG4 MAB) is listed as 88%. In addition, in data set [4] (after 7 h of incubation, before CTP addition), the “G2+2SA content” value is on record as 94%. Besides, the “G2+1SA content” value in data set [4] (after an incubation of 48 h, 37° C.) was 71%. Further, in data set [5], the specific activity amounted to 3.75 nmol/pg/min. In data set [6], the “intrinsic sialidase activity in the absence of CMP” value is reported as “no intrinsic sialidase activity”.

B2: Δ108 hST6Gal-I: soluble human β-galactoside-α-2,6-sialyltransferase I variant lacking N-terminal amino acids from position 1 to 108 (protein)
chain: LQKIWKNYLSMNKYKVSYKGPGPGIKFSAEALRCHLRDHVNVSMVEVTDFPFNTSEWEGYLPKESIRTKAGPWGRCAVVSSAGSLKSSQLGREIDDHDAVLRFNGAPTANFQQDVGTKTTIRLMNSQLVTTEKRFLKDSLYNEGILIVWDPSVYHSDIPKWYQNPDYNFFNNYKTYRKLHPNQPFYILKPQMPWELWDILQEISPEEIQPNPPSSGMLGIIIMMTLCDQVDIYEFLPSKRKTDVCYYYQKFFDSACTMGAYHPLLYEKNLVKHLNQGTDEDIYLLGKATLPGFRTIHC
modifications: delta108 truncation variant of hST6Gal-I
Take B2: in data set [3], the “sialidase activity in the presence of CMP” value was “did not show any sialidase activity”. Besides, the specific activity in data set [5] is more than 600 RFU/pg.
